Reference: patent US20120094895A1 (MOSAMEDIX B V, published 2012)

Tests used:
integrin αvβ5 = target: T1, integrin αvβ5 (UniProt P06756 31-1048; P18084 24-799, limits assumed); experiment: flow cytometry, fluorescein labeled protein on MCF-7 and THP-1 cells
T1 construct: whole, on cells; Endogenous on MCF-7 and THP-1 cells (human cell lines); also called integrin-receptor

integrin αvβ3 = target: T2, integrin αvβ3 (UniProt P06756 31-1048; P05106 27-788, limits assumed); experiment: as above
T2 construct: whole, on cells; Endogenous on MCF-7 and THP-1 cells (human cell lines); also called integrin-receptor
T2 sequence (P06756 31-1048 limits assumed, chain 1 of 2): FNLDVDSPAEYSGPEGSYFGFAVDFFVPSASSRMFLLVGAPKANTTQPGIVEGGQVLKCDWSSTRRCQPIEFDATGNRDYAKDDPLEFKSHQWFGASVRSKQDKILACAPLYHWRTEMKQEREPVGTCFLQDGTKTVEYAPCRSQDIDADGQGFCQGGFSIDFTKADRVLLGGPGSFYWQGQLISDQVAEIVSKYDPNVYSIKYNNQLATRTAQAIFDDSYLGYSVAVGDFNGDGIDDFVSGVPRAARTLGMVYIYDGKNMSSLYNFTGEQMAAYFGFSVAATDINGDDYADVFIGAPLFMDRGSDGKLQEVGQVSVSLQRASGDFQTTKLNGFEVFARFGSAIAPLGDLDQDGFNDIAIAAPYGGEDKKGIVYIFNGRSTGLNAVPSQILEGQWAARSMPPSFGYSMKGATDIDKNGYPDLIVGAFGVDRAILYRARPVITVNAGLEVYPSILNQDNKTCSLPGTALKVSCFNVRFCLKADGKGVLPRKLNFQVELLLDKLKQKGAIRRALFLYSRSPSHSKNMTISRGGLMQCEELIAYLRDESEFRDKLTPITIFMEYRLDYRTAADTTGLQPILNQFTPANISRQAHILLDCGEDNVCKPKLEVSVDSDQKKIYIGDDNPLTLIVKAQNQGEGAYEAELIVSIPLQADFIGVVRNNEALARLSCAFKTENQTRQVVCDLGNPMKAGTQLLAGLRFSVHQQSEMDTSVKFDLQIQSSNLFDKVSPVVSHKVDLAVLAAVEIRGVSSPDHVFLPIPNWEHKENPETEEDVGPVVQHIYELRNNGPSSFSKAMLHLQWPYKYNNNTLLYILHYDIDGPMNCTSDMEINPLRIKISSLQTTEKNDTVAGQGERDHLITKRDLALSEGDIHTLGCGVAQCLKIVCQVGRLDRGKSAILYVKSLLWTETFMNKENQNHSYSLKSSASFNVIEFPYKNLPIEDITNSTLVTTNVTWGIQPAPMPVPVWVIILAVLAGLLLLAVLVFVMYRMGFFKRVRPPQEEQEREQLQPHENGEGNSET
T2 sequence (P05106 27-788 limits assumed, chain 2 of 2): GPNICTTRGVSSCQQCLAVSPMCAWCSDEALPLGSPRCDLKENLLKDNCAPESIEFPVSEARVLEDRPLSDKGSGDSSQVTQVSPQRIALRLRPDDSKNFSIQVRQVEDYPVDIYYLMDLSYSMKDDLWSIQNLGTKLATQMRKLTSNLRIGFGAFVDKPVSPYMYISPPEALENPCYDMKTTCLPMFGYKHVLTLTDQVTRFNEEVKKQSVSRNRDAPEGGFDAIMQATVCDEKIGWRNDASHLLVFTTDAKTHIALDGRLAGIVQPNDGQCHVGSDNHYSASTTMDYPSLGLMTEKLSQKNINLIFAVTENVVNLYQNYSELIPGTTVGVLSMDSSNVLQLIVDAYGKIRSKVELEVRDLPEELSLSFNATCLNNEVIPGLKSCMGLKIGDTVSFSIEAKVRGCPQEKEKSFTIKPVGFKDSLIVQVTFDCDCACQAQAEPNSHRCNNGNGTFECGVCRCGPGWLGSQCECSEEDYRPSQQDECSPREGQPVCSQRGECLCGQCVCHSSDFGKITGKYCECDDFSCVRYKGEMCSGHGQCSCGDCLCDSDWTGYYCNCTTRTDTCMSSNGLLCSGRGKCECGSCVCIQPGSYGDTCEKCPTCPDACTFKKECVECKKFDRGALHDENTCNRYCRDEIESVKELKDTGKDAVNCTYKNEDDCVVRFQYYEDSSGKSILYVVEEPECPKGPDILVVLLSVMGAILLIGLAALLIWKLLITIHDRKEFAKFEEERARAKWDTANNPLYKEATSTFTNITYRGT

T1 sequence (P06756 31-1048 limits assumed, chain 1 of 2): as the sequence (P06756 31-1048 limits assumed, chain 1 of 2) above
T1 sequence (P18084 24-799 limits assumed, chain 2 of 2): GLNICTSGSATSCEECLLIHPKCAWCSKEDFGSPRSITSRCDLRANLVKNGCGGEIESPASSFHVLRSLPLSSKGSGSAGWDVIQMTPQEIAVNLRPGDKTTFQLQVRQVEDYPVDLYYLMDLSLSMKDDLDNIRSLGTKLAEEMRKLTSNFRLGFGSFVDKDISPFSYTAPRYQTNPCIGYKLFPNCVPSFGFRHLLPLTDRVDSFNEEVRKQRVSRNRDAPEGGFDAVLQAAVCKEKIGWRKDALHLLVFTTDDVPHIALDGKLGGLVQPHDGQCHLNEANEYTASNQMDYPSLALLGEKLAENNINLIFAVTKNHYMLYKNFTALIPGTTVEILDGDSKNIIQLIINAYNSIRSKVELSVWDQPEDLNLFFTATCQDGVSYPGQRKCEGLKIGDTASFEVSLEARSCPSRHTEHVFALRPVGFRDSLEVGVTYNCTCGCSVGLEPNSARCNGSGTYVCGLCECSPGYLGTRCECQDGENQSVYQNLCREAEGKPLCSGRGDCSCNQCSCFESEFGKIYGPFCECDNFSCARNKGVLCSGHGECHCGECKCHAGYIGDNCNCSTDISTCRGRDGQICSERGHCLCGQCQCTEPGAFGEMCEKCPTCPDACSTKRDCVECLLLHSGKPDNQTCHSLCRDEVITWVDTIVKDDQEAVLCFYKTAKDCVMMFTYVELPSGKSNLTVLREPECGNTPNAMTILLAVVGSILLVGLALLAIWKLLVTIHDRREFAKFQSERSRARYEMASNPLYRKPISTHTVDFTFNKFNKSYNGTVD

binding result (integrin αvβ5): binds | binding result (integrin αvβ3): binds
B1: annexin A5-T7D variant (other)
chain: AQVLRGDVTDFPGFDERADAETLRKAMKGLGTDEESILTLLTSRSNAQRQEISAAFKTLFGRDLLDDLKSELTGKFEKLIVALMKPSRLYDAYELKHALKGAGTNEKVLTEIIASRTPEELRAIKQVYEEEYGSSLEDDVVGDTSGYYQRMLVVLLQANRDPDAGIDEAQVEQDAQALFQAGELKWGTDEEKFITIFGTRSVSHLRKVFDKYMTISGFQIEETIDRETSGNLEQLLLAVVKSIRSIPAYLAETLYYAMKGAGTDDHTLIRVMVSRSEIDLFNIRKEFRKNFATSLYSMIKGDTSGDYKKALLLLCGEDD
modifications: fluorescein (FITC) label, site not stated
notes: Made in E. coli and purified; also called T7D anxA5; RGD-anxA5
